# Substitutions are numbered along the chain they refer to. In names and notes the source's numbering stands. Several values for one entry are separate records, joined by “and”; a condition that tells them apart may be missing. Equal values may be shown once.
# B1: WspR from P. aeruginosa, wild type (full length) (enzyme)
# chain: MHNPHESKTDLGAPLDGAVMVLLVDDQAMIGEAVRRSLASEAGIDFHFCSDPQQAVAVANQIKPTVILQDLVMPGVDGLTLLAAYRGNPATRDIPIIVLSTKEEPTVKSAAFAAGANDYLVKLPDAIELVARIRYHSRSYIALQQRDEAYRALRESQQQLLETNLVLQRLMNSDGLTGLSNRRHFDEYLEMEWRRSLREQSQLSLLMIDVDYFKSYNDTFGHVAGDEALRQVAGAIREGCSRSSDLAARYGGEEFAMVLPGTSPGGARLLAEKVRRTVESLQISHDQPRPGSHLTVSIGVSTLVPGGGGQTFRVLIEMADQALYQAKNNGRNQVGLMEQPVPPAPAG
# notes: the nucleotide-free form was made by treatment with the PDE SadR/RocR and repurification; The nucleotide state is told in each assay's format; also called WspR^wt; PA3702; source: E. coli BL21(DE3), purified (NiNTA, SEC); also E. coli BL21, in lysate; not shown: His6, C-terminal, kept
# B2: WspR^R198A (I-site mutant of P. aeruginosa WspR) (enzyme)
# chain: B1 chain with R198A
# notes: WspR, P. aeruginosa PAO1, locus tag PA3702, with R198A; Purifies essentially nucleotide-free; source: E. coli BL21(DE3), purified (NiNTA, SEC)
# B3: WspR^R242A (I-site mutant of P. aeruginosa WspR) (enzyme)
# chain: B1 chain with R242A
# notes: WspR, P. aeruginosa PAO1, locus tag PA3702, with R242A; Purifies essentially nucleotide-free; source: E. coli BL21(DE3), purified (NiNTA, SEC); also E. coli BL21, in lysate; not shown: His6, C-terminal, kept
# B4: WspR^L170D (stalk mutant of P. aeruginosa WspR) (enzyme)
# chain: B1 chain with L170D
# notes: WspR, P. aeruginosa PAO1, locus tag PA3702, with L170D; source: E. coli, purified
# B5: WspR^GGAAF (catalytically dead mutant of P. aeruginosa WspR) (enzyme)
# chain: B1 chain with E253A, E254A
# notes: WspR, P. aeruginosa PAO1, locus tag PA3702; the two central glutamates of the GGEEF motif (residues 251-255) replaced by alanines; Purifies nucleotide-free; source: E. coli BL21(DE3), purified (NiNTA, SEC); also E. coli BL21, in lysate; not shown: His6, C-terminal, kept
# Legend:
# [1] = biological target: WspR from P. syringae DC3000 (full length) (P. syringae DC3000); assay: crystal structure; unpublished data: crystal structure of the WspR homolog from P. syringae
# [2] = biological target: the molecule itself; assay: crystal structure; c-di-GMP-bound full-length WspR, 2.4 Å, space group C2, two molecules in the asymmetric unit; hanging drop, 0.1 M Tris-Cl pH 8.0, 2.9 M NaCl, 15% xylitol, 20 °C
# [3] = biological target: the molecule itself; assay: SEC; c-di-GMP-bound protein as purified, 0.24 mM; Superdex 200 10/300; 25 mM Tris-Cl pH 7.5, 100 mM NaCl, 1 mM DTT
# [4] = biological target: the molecule itself; assay: SEC-MALS; nucleotide-free mutants as purified, 4 mg/ml (approximately 0.1 mM); Shodex KW-803; 25 mM Tris-HCl pH 7.5, 100 mM NaCl, 1 mM DTT
# [5] = biological target: the molecule itself; assay: SEC; unpublished data: lysates of E. coli expressing WspR^R242A or WspR^GGAAF, gel filtration
# [6] = biological target: the molecule itself; assay: SEC-MALS; stalk mutants as purified (c-di-GMP bound), approximately 0.1 mM; Shodex KW-803; 25 mM Tris-Cl pH 7.5, 100 mM NaCl, 1 mM DTT
# [7] = biological target: the molecule itself; assay: SEC; nucleotide-free protein (wild type: PDE-treated, PDE and nucleotide removed; GGAAF as purified), 0.08-0.24 mM; Superdex 200 10/300; 25 mM Tris-Cl pH 7.5, 100 mM NaCl, 1 mM DTT; distribution depends on protein concentration
molecule,measurement,setting,value
WspR from P. syringae DC3000 (full length) (enzyme),stoichiometry N,[1],4
B1,stoichiometry N,[2],4
same,stoichiometry N,[3],2
B2,stoichiometry N,[4],2 and 4
B3,stoichiometry N,[5],2
same,stoichiometry N,[4],4
B4,stoichiometry N,[6],2 and 4
B5,stoichiometry N,[7],4 and 2

# From publication PMC2270323, “Phosphorylation-Independent Regulation of the Diguanylate Cyclase WspR” (PLoS Biology, 2008)
